Test results from PMC9312987, “NMR Reveals Specific Tracts within the Intrinsically Disordered Regions of the SARS-CoV-2 Nucleocapsid Protein Involved in RNA Encountering”.

Target: N protein NTR (IDR1-NTD-IDR2) (SARS-CoV-2, UniProt P0DTC9 1-248)
Assay: EMSA
Settings: protein: recombinant; tags: none stated; label: 5'-32P for EMSA; unlabeled for NMR; hairpin (stem loop)

Does GGGUGUGGCUGUCACUCGGCUGCAUGCUUAGUGCACUCACGCCC (structured_RNA) [5_SL4 (SL4 RNA)] bind?
Result: binds
